Measurements from patent US20210380697A1 (HUMMINGBIRD BIOSCIENCE PTE, published 2021).

Assays:
His-tagged human VISTA [1] = biological target: T1, His-tagged human VISTA (human, UniProt Q9H7M9 33-194); test: BLI epitope binning, human VISTA-His on anti-Penta-His sensor; row = saturating antibody 400 nM; competitor added after it: IGN175A IgG1 300 nM
T1 construct: Bought recombinant protein with a His tag; also called human VISTA-His recombinant protein; hVISTA
Protocol: (§1) Epitope binning experiments were performed by BLI using the Octet QK384 system (ForteBio). […] Biosensors were subsequently treated with 300 nM competing antibody in
(§2) The following antigen-binding molecules were analysed in the experiment: [1639]

His-tagged human VISTA [2] = biological target: T1, His-tagged human VISTA; test: BLI epitope binning, human VISTA-His on anti-Penta-His sensor; row = saturating antibody 400 nM; competitor added after it: V4-C1 IgG1 300 nM
Protocol: as §1, §2

Binder	change in response upon addition of the competing antibody (His-tagged human VISTA [1]) [nm]	change in response upon addition of the competing antibody (His-tagged human VISTA [2]) [nm]
anti-VISTA clone V4-C1 IgG1 (antibody, V domains shown) VH: QVQLQESGPGLVKPSDTLSLTCTVSGYSITSDYAWNWIRQTPGKGLEWIGYITYSGYISYNPSLRSRVTISRDTSKNQFSLKLSSVTAADTAVYSCARALYYPWYFDVWGTGTTVTVSS VL: EIVITQSPATLSLSPGERATLSCRASSSVGYIHWYQQKPGQAPRPLIYATSNRATGIPARFSGSGSGTDNTLTISSLEPEDSAVYYCQQWSSYPPITFGGGTKLEVKR	1.07	-0.0158
IGN175A IgG1 (antibody, V domains shown, Prior-art comparator (WO 2014/197849)) VH: QVQLQQSGAELMKPGASVKISCKATGYTFSTHWIEWVKQRPGHGLEWIGEILPGSGSTSYNEKFKGKATFTADTSSNTAYMQLSSLTSEDSAVYYCARWLLYYYAMDYWGQGTSVTVSS VL: DVLMTQTPLSLPVSLGDQASISCRSSQSIVHSNGNTYLEWYLQKPGQSPKLLIYKLSNRFSGVPDRFSGSGSGTDFTLKISRVEAEDLGVYYCFQGSHFPYTFGGGTKLEIKR	0.0454	1.44
